Experimental data taken from IntAct's records for PubMed 11967127.

B1: Disabled homolog 2 (Mus musculus), P98078 (parent)
chain: MSNEVETSTTNGQPDQQAAPKAPSKKEKKKGSEKTDEYLLARFKGDGVKYKAKLIGIDDVPDARGDKMSQDSMMKLKGMAAAGRSQGQHKQRIWVNISLSGIKIIDEKTGVIEHEHPVNKISFIARDVTDNRAFGYVCGGEGQHQFFAIKTGQQAEPLVVDLKDLFQVIYNVKKKEEDKKKVEEANKAEENGSEALMTLDDQANKLKLGVDQMDLFGDMSTPPDLNSPTESKDILLVDLNSEIDTNQNSLRENPFLTNGVTSCSLPRPKPQASFLPENAFSANLNFFPTPNPDPFRDDPFAQPDQSAPSSFDSLTSPDQKKASLSSSSTPQSKGPLNGDTDYFGQQFDQLSNRTGKPEAQGGPWPYPSSQTQQAVRTQNGVSEREQNGFHIKSSPNPFVGSPPKGLSVPNGVKQDLESSVQSSAHDSIAIIPPPQSTKPGRGRRTAKSSANDLLASDIFASEPPGQMSPTGQPAVPQSNFLDLFKGNAPAPVGPLVGLGTVPVTPPQAGPWTPVVYSPSTTVVPGAIISGQPPSFRQPLVFGTTPAVQVWNQSPSFATPASPPPPTVWCPTTSVAPNAWSSTSPLGNPFQSNNIFPPPTMSTQSSPQPMMSSVLATPPQPPPRNGPLKDIPSDAFTGLDPLGDKEVKEVKEMFKDFQLRQPPLVPSRKGETPPSGTSSAFSSYFNNKVGIPQEHVDHDDFDANQLLNKINEPPKPAPRQGVLLGTKSADNSLENPFSKGFSSSNPSVVSQPASSDPHRSPFGNPFA
B2: Disabled homolog 1 (Mus musculus), P97318 (parent)
chain: MSTETELQVAVKTSAKKDSRKKGQDRSEATLIKRFKGEGVRYKAKLIGIDEVSAARGDKLCQDSMMKLKGVVAGARSKGEHKQKIFLTISFGGIKIFDEKTGALQHHHAVHEISYIAKDITDHRAFGYVCGKEGNHRFVAIKTAQAAEPVILDLRDLFQLIYELKQREELEKKAQKDKQCEQAVYQTILEEDVEDPVYQYIVFEAGHEPIRDPETEENIYQVPTSQKKEGVYDVPKSQPNSQPLEDFESRFAAATPNRNLSMDFDELLEATKVSAVTQLELFGDMSTPPDITSPPTPATPGDAFLPSSSQTLPGSADVFGSMSFGTAAVPSGYVAMGAVLPSFWGQQPLVQQQIAMGAQPPVAQVIPGAQPIAWGQPGLFPATQQAWPTVAGQFPPAAFMPTQTVMPLAAAMFQGPLTPLATVPGTNDSARSSPQSDKPRQKMGKESFKDFQMVQPPPVPSRKPDQPSLTCTSEAFSSYFNKVGVAQDTDDCDDFDISQLNLTPVTSTTPSTNSPPTPAPRQSSPSKSSASHVSDPTADDIFEEGFESPSKSEEQEAPDGSQASSTSDPFGEPSGEPSGDNISPQDGS

Variants of: B1
Conditions: with myo6_chick MYO6, Q9I8D1
Target sequence in this assay (Q9I8D1 whole entry): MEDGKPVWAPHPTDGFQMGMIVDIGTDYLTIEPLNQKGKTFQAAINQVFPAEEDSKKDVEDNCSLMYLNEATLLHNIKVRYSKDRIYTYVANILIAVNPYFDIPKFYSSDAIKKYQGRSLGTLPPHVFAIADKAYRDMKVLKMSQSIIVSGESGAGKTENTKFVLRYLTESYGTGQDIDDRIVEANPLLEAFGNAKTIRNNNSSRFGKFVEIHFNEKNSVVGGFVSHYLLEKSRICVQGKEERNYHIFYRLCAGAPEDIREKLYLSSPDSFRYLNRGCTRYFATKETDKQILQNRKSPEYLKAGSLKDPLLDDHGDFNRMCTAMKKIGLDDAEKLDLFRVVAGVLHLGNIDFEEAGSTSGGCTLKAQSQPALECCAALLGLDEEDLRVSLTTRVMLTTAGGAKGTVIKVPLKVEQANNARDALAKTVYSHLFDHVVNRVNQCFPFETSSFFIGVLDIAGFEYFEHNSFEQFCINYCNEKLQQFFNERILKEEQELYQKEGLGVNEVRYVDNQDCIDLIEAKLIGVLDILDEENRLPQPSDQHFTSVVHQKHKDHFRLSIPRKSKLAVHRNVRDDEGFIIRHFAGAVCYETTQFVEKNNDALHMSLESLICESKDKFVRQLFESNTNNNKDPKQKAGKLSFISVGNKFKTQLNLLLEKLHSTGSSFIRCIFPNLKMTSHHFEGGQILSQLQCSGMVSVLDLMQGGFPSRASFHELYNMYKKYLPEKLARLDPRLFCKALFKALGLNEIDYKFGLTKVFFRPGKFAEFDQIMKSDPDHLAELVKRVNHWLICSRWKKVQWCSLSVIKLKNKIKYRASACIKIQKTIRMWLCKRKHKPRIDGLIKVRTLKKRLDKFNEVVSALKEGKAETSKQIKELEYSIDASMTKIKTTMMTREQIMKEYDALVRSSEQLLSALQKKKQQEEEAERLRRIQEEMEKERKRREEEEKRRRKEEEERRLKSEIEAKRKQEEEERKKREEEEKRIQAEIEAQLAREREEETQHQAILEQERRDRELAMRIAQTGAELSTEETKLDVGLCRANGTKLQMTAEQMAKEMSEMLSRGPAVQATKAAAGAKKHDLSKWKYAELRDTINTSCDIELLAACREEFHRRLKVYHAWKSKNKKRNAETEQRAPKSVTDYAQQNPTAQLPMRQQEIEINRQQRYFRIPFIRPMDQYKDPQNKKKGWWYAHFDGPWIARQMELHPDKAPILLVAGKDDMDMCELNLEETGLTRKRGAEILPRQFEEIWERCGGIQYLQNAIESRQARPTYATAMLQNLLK

effect of a mutation on the interaction | Variant
decreasing interaction | D699A;F700A;D701A
disrupting interaction | S682A;Y683A;F684A

Variants of: B2
Conditions: with myo6_chick MYO6, Q9I8D1
Target sequence in this assay (Q9I8D1 whole entry): as above

effect of a mutation on the interaction | Variant
decreasing interaction | S478A;Y479A;F480A
